Measurements from patent US7906628B2, “Targeting proteins to deliver therapeutic or diagnostic reagents” (The Board of Regents, The University of Texas System, priority 2002, dated 2011).

What was measured:
[1] = test system: human umbilical endothelial cells (HUVEC); experiment: Endothelial tube assay; assay type: cell-based; conditions: supernatant from plasmid-transfected 293T cells; FIGS. 2A-2D
Procedure: Endothelial tube assay: Matrigel (Collaborative Biomolecules, Bedford, Mass.) was added (50 μl) to each well of a 96-well plate and allowed to polymerize. A suspension of 5,000 human umbilical endothelial cells (HUVEC) in EGM-2 medium without antibiotic was passed into each well coated with matrigel. The cells were treated with supernatants collected from different plasmid (endostatin, endostatin-CD, and CD) transfected 293T cells. All assays were performed in triplicate. Cell were incubated for 12-24 hr at 37° C. and viewed using a microscope. The cells were then photographed. Five fields were viewed, and tubes were counted and averaged.

HUVECs = experiment: Migration assay (VEGF-induced chemotaxis, Boyden chamber); assay type: cell-based, human; conditions: supernatant from plasmid-transfected 293T cells; 10 ng/ml VEGF as chemotactant; FIGS. 2E-2H
Procedure: After trypsinizing, washing, and diluting cells in M199 medium containing 0.5% FBS, 10,000 cells were seeded on the upper chamber wells, together with supernatant collected from 293T transfected with different plasmid (endostatin, endostatin-CD, and CD). M199 medium containing 2% FBS plus 10 ng/ml VEGF was placed in the lower chamber as a chemotactant. The cell-containing compartments were separated from the chemotactant with polycarbonate filter of 8 um pore size. The chamber was incubated at 37° C. for 6-8 hr. After discarding the non-migrated cells and washing the upper wells with PBS, the filters were scraped with a plastic blade, fixed in 4% formaldehyde in PBS, stained with DAPI fluorescent stain and placed on a glass slide. By using a fluorescent high power field, several independent homogenous images were recorded. Five fields were viewed, and […] were counted and averaged. All assays were performed in triplicate.

B1: endostatin: endogenous angiogenesis inhibitor, 18 KD, used as comparator (protein, listed as Homo sapiens)
chain: IVNLKDELLFPSWEALFSGSEGPLKPGARIFSFDGKDVLRHPTRPQKSVWHGSDPNGRRLTESYCETWRTEAPSATGQASSLLGGRLLGQSAASSHHAYIVL
With B1 the “HUVEC cell tube formation” value [1] was “inhibitory effect” and the HUVEC cell migration (HUVECs) was “inhibitory effect”.
